Data from patent publication US20050255113A1, “Methods and compositions for inhibiting polypeptide accumulation associated with neurological disorders” (New York State Department of Health and Abgenix, Inc., priority 1999, published 2005).

Tests used:
GST-HD-25Q, GST-HD-42Q = test: Affinity purification of sFv with GST-fusion antigens (glutathione-Sepharose, SDS-PAGE, immunoblot); format: binding; conditions: 3 μg sFv with 4 μg antigen, 1 hr room temperature; Coomassie and immunoblot
Method: About 3 ug of N-HD-C4 sFv was mixed with 4 ug of either GST-DRPLA-Q35 or GST-HD-Q25 or GST-HD-Q42 in PBS (200 μl final volume) and rocked for 1 h at RT. Twenty microliters of glutathione Sepharose 4B beads (50% slurry, pre-washed with PBS) was added and incubated for another 30 min at RT to capture the sFv/GST fusion protein complexes. The beads were harvested by centrifugation at 12,000×g for 10 sec and washed thrice with 1 ml PBS. The complexes were eluted with 10 μl of 50 mM Tris pH 8.0 containing 10 mM reduced glutathione for 10 min at RT. Tubes were then centrifuged at 12,000×g for 1 min and the supernatants containing the soluble complexes were transferred to new tubes, mixed with an equal volume of 2× SDS-sample buffer and heated at 95° C. before being loaded on SDS-PAGE.
About 3 μg of each clone were incubated in solution for 1 hour at room temperature with 4 ug of either GST-DRPLA-Q35, GST-HD-Q25 or GST-HD-Q42. Then, a 10 μl bed volume of glutathione-Sepharose 4B (Pharmacia) was added to each tube to precipitate the GST-fusion protein/sFv complexes. After 30 min incubation, tubes were centrifuged and the pellets washed 3 times with 1 ml PBS. The complexes were eluted from glutathione-Sepharose beads by addition of 10 mM reduced glutathione to the pellets.
After centrifugation, supernatants containing the eluted complexes were transferred to new tubes and mixed with an equal volume of 2× SDS-loading buffer. The samples were boiled and the proteins separated on a 12% SDS-PAGE. Protein bands were visualized by Coomassie blue staining, and/or transferred to nitrocellulose membranes in order to detect the sFv molecules by immunoblot.
The binding specificities of the selected sFv clones were tested by affinity binding to a full range of antigens, as follows: (a) using sample numbers that correspond to the experimental results in FIGS. 9 and 10, about 3 μg of α-Nt-HD-C4 sFv clone 1 (lanes 2-4) or α-Nt-HD-C4 sFv clone 2 (lanes 5-7) were mixed with 4 μg of the following antigens and incubated in solution for 1 hr at room temperature (lanes 2 and 5) GST-DRPLA-35Q, (lanes 3 and 6) GST-HD-25Q, (4 and 7) GST-HD-42Q; (b) a 10 μl bed volume of glutathione-Sepharose 4B (Pharmacia) was added to each tube to bind all GST-containing protein complexes; the beads were washed with 10 mM glutathione solution, which eluted the GST-antigen or the sFv-antigen complex, and these eluates were analyzed by SDS-PAGE. Protein bands were visualized by Coomassie blue staining (FIG. 9) and were also transferred to nitrocellulose membranes in order to detect the sFv molecules by immunoblot blot (FIG. 10).

COS-7 cells = test: Aggregation and cell death of model huntingtin-GFP fusion polypeptides expressed in COS-7 cells; format: cell-based, Primate
Description: In order to determine the effects of intracellular polypeptide aggregation, cells expressing a polypeptide representing normal huntingtin polypeptide as compared to cells expressing a huntingtin polypeptide representing the polypeptide found in patients with Huntington's disease was examined. Primate cells (COS-7) were transfected with plasmid constructs encoding a model huntingtin-GFP fusion polypeptide representing the normal polypeptide or an altered huntingtin polypeptide associated with disease having 47, 72, or 104 glutamine residues. Within 24 h of transfection, a large number of the cells express the huntingtin polypeptide as indicated by the GFP tag fused to each of the test proteins. Observations were recorded at three time points (see Table 4).
Using fluorescence microscopy, it was observed that cells that express the huntingtin-GFP polypeptide with 104 glutamine residues (FIG. 3D) harbor large, brilliant aggregates. […] In cells expressing a model huntingtin polypeptide with fewer glutamine residues (72Q), extremely bright and more variable aggregates are seen, with slightly less cell death. And in cells expressing a model huntingtin polypeptide with 47 glutamine residues, the fluorescence intensity was less and more diffuse.

cerebellar slices = test: Aggregation of model huntingtin-GFP polypeptides in biolistically transfected cerebellar slices; format: cell-based, mice (P12 Balb); conditions: examined after 24 h
Method: Organotypic slice cultures are made from P12-P14 cerebellum, cerebral cortex, or striatum, using published methods with minor modifications (1)(14). The brain is dissected from a mouse and placed in a beaker of high magnesium (1.8 mM CaCl2 and 2.4 mM MgCl2) HEPES-buffered Hanks' saline (HBHS) at 4° C. The brain is then blocked and mounted next to a 2% agarose block on a 1-cm^2 piece of Plexiglas (0.3 cm thick) with SuperGlue®. Dental wax mounts the plastic onto the slicing-chamber tissue-holder. After being mounted, the tissue is placed in the slicing chamber of the vibratome. The bath of the vibratome contains cooled high magnesium HBHS at 4° C. Temperature is maintained by a peltier thermoelectric refrigeration system attached to the slicing chamber (FHC, Brunswick, Me.). Three or 400 μm thick sections were sliced from the tissues of interest. As each new slice was made it was placed into growth medium at 4° C. until the collection of slices was complete. Slices from one preparation were then placed in an enclosed filter unit, and incubated at 37° C. for 1 hour in high magnesium artificial cerebral spinal fluid ([…], 0.33 mM KCl, 0.12 mM NaH2PO4, 2.5 mM NaHCO3, 1 mM dextrose, 2.4 mM MgCl2, 1.8 mM CaCl2; all items from Sigma®, St. Louis, Mo.). Solutions were constantly gassed with 95% O2 and 5% CO2. […]

[1] = test system: model huntingtin polypeptide (HD-25Q-GFP, pHD-104Q-GFP, HD-Q104-myc, GFP-HD-Q104); test: Intrabody retargeting of model huntingtin polypeptide in co-transfected COS-7 cells (immunofluorescence); format: cell-based
Method: COS 7 cells were grown on cover glass in 6-well plates (10^5 cells/well) and co-transfected at a ratio of 3:1 (sFv to target) with plasmids containing either N-HD-C4 sFv or a negative control sFv (containing an HA tag and SV40 nuclear localization sequence (NLS)) and plasmids containing GFP-targeted fusion proteins using 5 μl SuperFect transfection reagent (QIAGEN). At 24 hours post-transfection, cells were prepared for immunofluorescence as follows: cells were fixed with 4% paraformaldehyde and permeabilized with 0.2% triton-X100. To prevent non-specific binding of secondary antibodies, cells were blocked with 10% normal goat serum in 3% BSA.
The assay is designed such that both the target antigen, i.e., the model huntingtin polypeptide, and the intrabody can be visualized. In particular, the huntingtin polypeptide is visualized by detecting fluorescence emitted by the GFP domain of the huntingtin-GFP fusion polypeptide and the intrabodies tested are visualized using a rhodamine-conjugated antibody that can specifically bind to the intrabody.
The model HD target polypeptide was fused to c-myc (EQKLISEEDL (SEQ ID NO: 45)) epitope tag (HD-Q104-myc). The intrabodies sequences were fused to a HA tag and a SV40 nuclear localization signal (sFv-HA-NLS), so that bound antigens should be retargeted to the cell nuclei. At 48 hours post-transfection, cells were fixed and permeabilized. The HD-Q104-myc proteins were detectable using anti-myc epitope antibodies (i.e., MAb 9E10 IgG), followed by FITC-labeled goat anti-mouse IgG. The sFv-HA-NLS intrabodies were detected by polyclonal rabbit anti-HA IgG followed by rhodamine-conjugated goat anti-rabbit IgG antibodies.
FIGS. 13A-F show stably transfected COS-7 cells expressing α-Nt-HD-C4 sFv-HA-NLS which were further transfected with plasmids encoding either the model altered huntingtin polypeptide with 104 glutamine repeats (FIGS. 13B, D, F) or the model altered DRPLA polypeptide with 81 glutamine repeats (FIGS. 13A, C, E). Both model altered polypeptides were fused to GFP (GFP-HD-Q104 and GFP-DRPLA-Q81, respectively).

B1: α-Nt-HD-C4 sFv clone 1: subclone 1 of α-Nt-HD-C4 sFv expressed in bacteria and purified on Ni-NTA (protein)
scFv: QVQLQESGGGLVQPGGSLRLSCAASGFTFSSYSMSWVRQAPGKGLEWVAVISYDGSNKYYADSVKGRFTISRDNSKNTLYLQMNSLRAEDTAVYYCARDRYFDLWGRGTLVTVSSGGGGSGGGGSGGGGSQSALTQPASVSGSPGQSITISCTGTSSDIGAYNYVSWYQQYPGKAPKLLIYDVSNRPSGISNRFSGSKSGDTASLTISGLQAEDEADYYCSSFANSGPLFGGGTKVTVL
modifications: left off: small tags and cut ends
notes: subclone 1 of α-Nt-HD-C4 sFv expressed in bacteria and purified on Ni-NTA
sFv co-purified with antigens containing the Nt-HD sequence (GST-HD-25Q, GST-HD-42Q): binding only the HD flanking peptide

B2: α-Nt-HD-C4 sFv clone 2: subclone 2 of α-Nt-HD-C4 sFv expressed in bacteria and purified on Ni-NTA (protein)
scFv: B1 scFv
modifications: left off: small tags and cut ends
notes: subclone 2 of α-Nt-HD-C4 sFv expressed in bacteria and purified on Ni-NTA
sFv co-purified with antigens containing the Nt-HD sequence (GST-HD-25Q, GST-HD-42Q): binding only the HD flanking peptide

B3: 104Q: model huntingtin-GFP fusion polypeptide with 104 glutamine residues; SEQ ID NO: 14 (protein)
chain: MATLEKLMKAFESLKSFQQQQQQQQQQQQQQQQQQQQQQQQQQQQQQQQQQQQQQQQQQQQQQQQQQQQQQQQQQQQQQQQQQQQQQQQQQQQQQQQQQQQQQQQQQQQQQQQQQQQQQQQ
fluorescence pattern / aggregation / cell death (COS-7 cells; 72 h after transfection): substantial death | aggregates in brain tissue (cerebellar slices): large aggregates

B4: 47Q: model huntingtin-GFP fusion polypeptide with 47 glutamine residues; SEQ ID NO: 12 (protein)
chain: MATLEKLMKAFESLKSFQQQQQQQQQQQQQQQQQQQQQQQQQQQQQQQQQQQQQQQQQQQQQQQ
fluorescence pattern / aggregation / cell death (COS-7 cells; 24 h after transfection): diffuse, bright

B5: α-Nt-HD-C4 sFv-NLS: huntingtin-specific C4 sFv intrabody fused to HA tag and SV40 nuclear localization signal (protein)
scFv: QVQLQESGGGLVQPGGSLRLSCAASGFTFSSYSMSWVRQAPGKGLEWVAVISYDGSNKYYADSVKGRFTISRDNSKNTLYLQMNSLRAEDTAVYYCARDRYFDLWGRGTLVTVSSGGGGSGGGGSGGGGSQSALTQPASVSGSPGQSITISCTGTSSDIGAYNYVSWYQQYPGKAPKLLIYDVSNRPSGISNRFSGSKSGDTASLTISGLQAEDEADYYCSSFANSGPLFGGGTKVTVLYPYDVPDYATPPLLLRLV
relocation of HD-Q104-myc ([1]; COS-7, 48 hours post-transfection): able to relocate the model altered huntingtin polypeptide HD-Q104-myc from the cytosol to the nucleus | retargeting of HD-25Q-GFP ([1]; COS-7 co-transfection): can retarget the distribution of huntingtin polypeptide to the nucleus | colocalization with GFP-HD-Q104 in cell nuclei ([1]; COS-7 stably expressing the intrabody): clearly shows specificity to GFP-HD-Q104

B6: 72Q: model huntingtin-GFP fusion polypeptide with 72 glutamine residues; SEQ ID NO: 13 (protein)
chain: MATLEKLMKAFESLKSFQQQQQQQQQQQQQQQQQQQQQQQQQQQQQQQQQQQQQQQQQQQQQQQQQQQQQQQQQQQQQQQQQQQQQQQQ
aggregates in brain tissue (cerebellar slices): smaller, more discrete aggregates
